The values that follow come from patent publication US20220396632A1 (VERSEAU THERAPEUTICS, published 2022).

T1: PSGL-1(42-62) N-terminal peptide, sulfation state not told at the place (human, not fully specified; sulfation of Y46, Y48, Y51 not stated for these table columns)
T1 peptide: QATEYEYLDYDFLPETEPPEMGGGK

T2: Biotin sY51 PSGL-1(42-62) peptide (human, sulfotyrosine at Y51; C-terminal Lys-biotin)
T2 construct: also called Y51(SO3) PSGL-1(42-62)
T2 peptide: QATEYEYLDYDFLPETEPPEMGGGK

T3: Biotin sY48 PSGL-1(42-62) peptide (human, sulfotyrosine at Y48; C-terminal Lys-biotin)
T3 construct: also called sY48S
T3 peptide: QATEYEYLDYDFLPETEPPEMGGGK

T4: Recombinant human PSGL-1(ECD)-hFc1 (R&D Systems, Cat. 3345-PS) (human, UniProt Q14242 42-305)
T4 construct: Bought; Gln42-Val295 counted on AAC50061; also called PSGL-1-Fc; PSGL-1-hFc1 chimera; not shown: human IgG1 Fc, Pro100-Lys330
T4 sequence: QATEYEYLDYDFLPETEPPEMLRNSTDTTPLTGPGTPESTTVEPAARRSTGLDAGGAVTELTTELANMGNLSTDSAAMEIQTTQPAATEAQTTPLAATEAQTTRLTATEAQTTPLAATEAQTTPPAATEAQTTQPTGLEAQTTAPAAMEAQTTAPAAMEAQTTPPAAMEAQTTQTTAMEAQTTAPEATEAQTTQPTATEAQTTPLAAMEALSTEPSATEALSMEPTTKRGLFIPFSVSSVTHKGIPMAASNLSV

T5: Biotin PSGL-1(42-62) D52A peptide (C-terminal Lys-biotin)
T5 peptide: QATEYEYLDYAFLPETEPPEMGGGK

B1: 16E17 (antibody, V domains shown)
VH: QIQLVQSGPELKKPGETVKISCKASGYAFTTYGMSWVKQAPGKGLKWMGWINTYSGVPKYADDFKGRFAFSLETSASTAYLHINNLKNEDTATYFCGRHYYGSSYFDYWGQGTTLTVSS
VL: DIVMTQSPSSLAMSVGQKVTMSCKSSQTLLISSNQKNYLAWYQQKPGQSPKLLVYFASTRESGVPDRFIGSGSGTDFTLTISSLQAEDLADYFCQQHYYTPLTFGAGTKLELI
notes: From mouse immunisation; only variable domains given
B2: 19L04 (antibody, IgG4, V domains shown)
VH: B1 VH with A28T, K59T, H82Q, N88I, G97A, S104H
VL: DIMMTQSPSSLAMSVGQKVTLRCKSSQSLLNSSNQKNYLAWYQQKPGQSPKLLVYFASTRESGVPVRFIGSGSGTDFTLTISSMQAEDLADYFCQQHYFSPLTFGAGTKLELK
notes: as for B1
B3: 19N05 (antibody, V domains shown)
VH: B1 VH with A28T, K59T, Y60F, H82Q, Y94F, G97A, H99N, S103N, S104H
VL: DVQITQSPSYLAASPGETISINCRASNNINKYLAWYQEKPGKTNKLLIYSGSTLQSGIPSRFSGSGSGTDFTLTISSLEPEDFAMYHCQQHNYYPLTFGAGTKLELK
notes: as for B1
B4: 18K07 (antibody, V domains shown)
VH: QIQLVQSGPELKKPGETVKISCEASGYTFTTYGMNWVKQAPGKGLKWMGWINTYSGVPTYADDFQGRFAFSVETSATTAYLQINNLKNEDAATYFCARSDDTYYGFAYWGQGTLVTVSA
VL: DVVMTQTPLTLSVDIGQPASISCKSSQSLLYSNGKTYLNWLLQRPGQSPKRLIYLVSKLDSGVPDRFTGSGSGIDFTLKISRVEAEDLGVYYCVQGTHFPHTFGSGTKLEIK
notes: as for B1
B5: 03D07 (antibody, IgG4, V domains shown)
VH: EVKLLESGGGLVQPGGSLRLSCAASGFTFSSYALSWVRQAPGKGLEWVSAISGSGGNTYYADSVKGRFTISRDNSKNTLYLQMNSLRAEDTAVYYCAKVVGATNYWGQGTLVTVSS
VL: DIVMTQTPLSLPVTLGQPASISCRSSQSLVYSDGHTYLSWFHQRPGQSPRRLIYKVSIRDSGVPDRFSGSGSGTDFTLKISRVEAEDVGVYYCMQRLQIPLTFGGGTKVEIK
B6: 10F01 (antibody, IgG4, V domains shown)
VH: EVQLVQSGGGLVQPGGSLRLSCAASGFTFSSYAMSWVRQAPGKGLEWVSALRGGDGGTYHADSVKGRFTISGDSSKNTLYLQMNSLRAEDTAVYYCARRMVGAAYAFDIWGQGTMVTVSS
VL: LPVLTQPHSVSESPGKTVTISCTRSSGSIADNFVQWYRQRPGSAPTTVIYEGDQRPSGVPGRFSGSIDSSSNSASLTISGLQTDDEADYYCQSFDSYNRRTHVVFGGGTKLTVL
B7: 20I15 (antibody, V domains shown)
VH: EVKLVESGGGLVQPGGSLSLSCAASGFTFTDYYMSWVRQPPGKALEWLGFIRNKANGYTTEYSASVKGRFTISRDNSQSILYLQMNALRAEDSATYYCARTYLRRGYFDVWGTGTTVTVSS
VL: DIVLTQSPASLAVSLGQRATISCRASKSVSTSGYSYMHWFQQKPGQPPKLLIYLASNLESGVPARFSGSGSGTDFTLNIHPVEEEDAATYYCQHSRELPLTFGAGTKLELK
notes: From mouse immunisation; only variable domains given; also called 20115
B8: 16L15 (antibody, V domains shown)
VH: DVKLVESGGGLVKLGGSLKLSCAASGFTFSSYYMSWVRQTPEKRLEWVATISNGGGSTYYPDSVKDRFTISRDNAKNTLYLQMSSLNSEDTAVYYCAKPLYYSNPWFAYWGQGTLVTVSA
VL: DVLLTQTPLSLPVSLGDQASISCRSSQSIVHSNGNTYLEWYLQKPGQSPKLLIYKVSNRFSGVPDRFSGSGSGTDFTLKISRVEAEDLGVYYCFQGSHVPRTFGGGTKLEIK
notes: as for B1
B9: 18F02 (antibody, V domains shown)
VH: QVQLQQPGAELVKPGASVKLSCKASGYTFTSYWMHWVKQRPGQGLEWIGMIHPNSGRTNYNEKFKSKATLTVDKSSSTAYMQLSSLTSEDSAVYYCARSDYWGQGTTLTVSS
VL: DIVMTQAAFSNPVTLGTSASISCRSSKSLLHSDGITYLYWFLQRPGQSPQLLIYRMSNLASGVPDRFSGSGSGTDFTLRISRVEAEDVGVYYCAQMLEFPRTFGGGTKLEIK
notes: as for B1
B10: 5E12 (antibody, V domains shown)
VH: EIQLQQSGAELVRPGASVKLSCTASGFNIKDDYIHWVKQRPEQGLEWIGRIDPANGNTKSAPKFQDKATITADTSSNTAYLHLSSLTSEDTAVYYCSIRFAYWGQGTLVTVSA
VL: DVVMTQTPLSLSVSLGDQASISCRSSQSLVYRNGDTYLHWFLQKPGQSPKLLIYKVSNRFSGVPDRFSGSGSGTDFTLKISRVEAEDLGIYFCSQNTHVPYTFGGGTKLEIK
notes: Mouse hybridoma mAb; only variable domains given

Where a chain is given by its changes, count along the chain named. A value given as a limit tells only on which side of the number the result lay.

The term EC50 denotes the midpoint of the concentration-response curve. Read a high EC50 as a less potent agent.

The target in the first assay is PSGL-1(ECD)-hFc1 I121A protein (Sino Biological) (human). Kind of assay: ELISA, plate-bound peptide or protein. The method, then:
(§1) A typical ELISA experiment involved binding of a single concentration or serially diluted mAb in assay buffer (3% BSA in PBS containing 0.05% Tween®20, pH 7.4) onto BSA blocked high binding microtiter plate half-wells (Corning Cat. #3690), which contained PSGL-1 protein or streptavidin-immobilized biotin peptide. After incubation for 45 min. at 37° C., the plate was washed 3 times with wash buffer (PBS containing 0.05% Tween®20, pH 7.4), and an appropriate HRP-conjugated secondary antibody added (25 ul/well) (HRP goat anti-mouse or anti-human IgG). After 45 min. incubation at 37° C., the plate was washed and antibody bound to plate-immobilized target was determined at A450 nm using HRP substrate (3,3′5,5′-tetramethylbenzidine (TMB)). For each antibody, duplicate values were averaged and assay background subtracted.
A general note: An ELISA detects its analyte on a solid surface through an enzyme-linked reagent.
B1 gave an EC50 of 1.54 nM.

As for B2, the EC50 stood at 0.97 nM.

Take B3: the EC50 was found to be 0.53 nM.

In turn, B4 came in with an EC50 of 0.51 nM.

A further assay concerns the target PSGL-1(ECD)-hFc1 S116A protein (Sino Biological) (human). Kind of assay: ELISA, plate-bound peptide or protein. The procedure:
as §1
As for B1, a half-maximal effect (EC50) was put at 0.8 nM.

On to B2, for which a half-maximal effect (EC50) was put at 0.98 nM.

Regarding B3, the concentration for a half-maximal effect (EC50) was determined as 0.55 nM.

In turn, B4 came in with an EC50 of 0.58 nM.

Another assay concerns the target PSGL-1(ECD)-hFc1 M119A protein (Sino Biological) (human). Kind of assay: ELISA, plate-bound peptide or protein. The method, then:
as §1
B1 yielded an EC50 of 0.87 nM.

B2 yielded an EC50 of 0.86 nM.

B3 gave an EC50 of 0.51 nM.

In the case of B4, a half-maximal effect (EC50) was put at 0.46 nM.

The next assay concerns the target T1, PSGL-1(42-62) N-terminal peptide, …. Kind of assay: binding to PSGL-1 42-62.
Take B1: the binding result was “no binding”.

In the case of B2, the binding result is reported as “no binding”.

As to B3, the binding result was “no binding”.

Regarding B4, the binding result is on record as “no binding”.

For a further assay, the target named is T2, Biotin sY51 PSGL-1(42-62) peptide. Kind of assay: ELISA, plate-bound mAb captures biotin peptide. The procedure:
(§2) Two ELISA methods were performed. One procedure detected mAb binding to its plate-immobilized target and the other measured the immobilized antibody's ability to capture biotinylated PSGL-1₄₂₋₆₂. […] The plate was incubated for 45 min at 37° C. Plates were washed 3 times with wash buffer (PBS containing 0.05% tween 20, pH 7.4) and a single concentration (2 to 500 nM) or serially diluted (0.002-100 nM) anti-PSGL-1 mAb was added (25 ul/well) in assay buffer into appropriate wells. The plate was incubated for 45 min at 37° C., washed 3 times, and an appropriate HRP-conjugated secondary antibody added (25 ul/well) (HRP goat anti-mouse or anti-human IgG). After 45 min incubation at 37° C., the plate was washed, and antibody bound to plate-immobilized target was determined at A450 nm using HRP substrate (3,3′,5,5′-etramethylbenzidine (TMB)). For each antibody, duplicate values were averaged and assay background was subtracted. Except for the following, ELISAs involving plate-immobilized mAb capturing of biotinylated PSGL-1₄₂₋₆₂ peptides was performed in the same manner as described above: 3 ug/mL/25 ul per well of mAb was coated directly onto microtiter plate wells; biotinylated unmodified or sulfotyrosine PSGL-1₄₂₋₆₂ was serially diluted (3 nM-3 uM) into appropriate wells, and antibody-bound peptide was detected using HRP-streptavidin (Jackson Immunoresearch, Cat. #016-030-084).
As for B5, the EC50 was roughly 2000 nM and the “fold stronger binding than to the unmodified peptide” value was roughly 10 fold.

For the molecule B6, it took 36.2 nM to reach a half-maximal effect (EC50).

Turning to B7, the EC50 was roughly 3000 nM.

A further assay concerns the target T3, Biotin sY48 PSGL-1(42-62) peptide. Kind of assay: ELISA, plate-bound mAb captures biotin peptide. The method, then:
as §2
With B5, the EC50 was greater than 3000 nM.

As to B6, the EC50 was roughly 3000 nM.

B7 had a concentration for a half-maximal effect (EC50) of roughly 3000 nM.

The target of a further assay is T4, Recombinant human PSGL-1(ECD)-hFc1 (R&D …). Kind of assay: Octet tandem; competitor 18F17. The method, then: (§3) Antibody binning was performed by ForteBio Octet® using a tandem assay format, with anti-human IgG biosensor-immobilized PSGL-1(ECD)-hFc1 protein, binding of competitor mAb followed by analyte antibody. As competition controls, the same antibody was competed against itself, and mAb competition was performed bidirectionally.
(§4) Antibody binning by tandem octet was performed by immobilizing 10 ug/mL PSGL-1(ECD)-hFc1 (R&D Systems, Cat. #3345-PS) in PBS, pH 7.4, onto anti-human IgG capture biosensors (ForteBio, Cat. #18-5060), binding of 100 nM competitor antibody for 300 sec., followed by binding of 100 nM of analyte mAb for 300 s in kinetic buffer (0.1% BSA in PBS containing 0.02% tween 20 and 0.05% sodium azide, pH 7.4). Synagis (Johnson et al. (1997) J. Infect. Dis. 176:1215-1224) served as a negative control mAb for competition. An Fc quench step (0.25 mg/mL human IgG Fcl; BioXcell, Cat. #BE0096, in kinetic buffer) was included when human mAbs were tested to prevent high background from the antibodies binding to the anti-human IgG biosensor. Biosensor regeneration buffer consisted of 10 mM glycine, pH 2.0.
Regarding B1, the “% binding of analyte mAb” value turned out to be 93.8%.

Turning to B2, the “% binding of analyte mAb” value is 81.4%.

As to B3, the “% binding of analyte mAb” value came out at 65.3%.

B4: the “% binding of analyte mAb” value stood at 91.4%.

A further assay addresses T5, Biotin PSGL-1(42-62) D52A peptide. Kind of assay: ELISA, streptavidin-bound Ala peptide.
B8 showed an EC50 of 19.9 nM.

Molecule B9 yielded a 50% effective concentration (EC50) greater than 10 nM.

The target of the next assay is T6, Human complement C4 protein (Millipore Sigma, Cat. 204886) (human, UniProt P0C0L4 20-675; P0C0L4 680-1446; P0C0L4 1454-1744, limits assumed, natural sulfotyrosines).
T6 construct: mature
T6 sequence (P0C0L4 20-675 limits assumed, form in doubt, chain 1 of 3): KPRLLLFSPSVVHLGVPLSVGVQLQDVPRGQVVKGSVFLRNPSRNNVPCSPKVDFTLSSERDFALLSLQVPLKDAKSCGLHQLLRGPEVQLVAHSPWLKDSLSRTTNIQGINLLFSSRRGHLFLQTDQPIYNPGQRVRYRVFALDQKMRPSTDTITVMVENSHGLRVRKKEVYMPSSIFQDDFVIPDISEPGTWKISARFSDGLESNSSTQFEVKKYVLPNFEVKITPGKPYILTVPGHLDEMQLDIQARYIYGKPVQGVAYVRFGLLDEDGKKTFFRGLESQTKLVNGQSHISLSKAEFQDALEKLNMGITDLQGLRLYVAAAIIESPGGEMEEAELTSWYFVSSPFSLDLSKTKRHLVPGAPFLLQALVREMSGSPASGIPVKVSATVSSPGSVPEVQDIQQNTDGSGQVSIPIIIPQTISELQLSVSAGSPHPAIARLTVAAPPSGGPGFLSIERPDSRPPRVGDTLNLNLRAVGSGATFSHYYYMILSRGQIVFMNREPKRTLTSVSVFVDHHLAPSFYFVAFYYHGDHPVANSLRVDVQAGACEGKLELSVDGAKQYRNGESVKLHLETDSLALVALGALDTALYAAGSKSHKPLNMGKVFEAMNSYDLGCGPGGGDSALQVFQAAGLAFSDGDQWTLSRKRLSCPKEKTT
T6 sequence (P0C0L4 680-1446 limits assumed, form in doubt, chain 2 of 3): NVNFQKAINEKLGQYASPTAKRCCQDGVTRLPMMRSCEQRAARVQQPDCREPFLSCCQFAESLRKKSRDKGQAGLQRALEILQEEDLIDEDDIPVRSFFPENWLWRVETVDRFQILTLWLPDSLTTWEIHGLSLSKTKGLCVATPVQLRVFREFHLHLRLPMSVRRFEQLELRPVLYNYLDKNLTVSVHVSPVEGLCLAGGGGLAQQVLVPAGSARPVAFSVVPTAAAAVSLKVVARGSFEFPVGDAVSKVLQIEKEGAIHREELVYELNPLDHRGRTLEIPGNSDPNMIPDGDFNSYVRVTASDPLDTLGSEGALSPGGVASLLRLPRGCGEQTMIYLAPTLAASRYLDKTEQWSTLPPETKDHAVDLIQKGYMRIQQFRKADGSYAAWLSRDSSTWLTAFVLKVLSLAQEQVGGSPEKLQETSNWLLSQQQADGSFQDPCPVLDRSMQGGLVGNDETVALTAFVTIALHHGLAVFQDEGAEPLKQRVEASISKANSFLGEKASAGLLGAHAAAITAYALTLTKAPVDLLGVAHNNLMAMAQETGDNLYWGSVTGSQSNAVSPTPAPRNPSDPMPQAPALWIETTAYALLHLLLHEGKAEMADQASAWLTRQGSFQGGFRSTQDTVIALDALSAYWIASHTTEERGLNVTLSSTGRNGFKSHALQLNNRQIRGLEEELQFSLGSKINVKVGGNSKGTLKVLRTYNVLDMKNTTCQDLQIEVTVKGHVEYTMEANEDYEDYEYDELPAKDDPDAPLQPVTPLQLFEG
T6 sequence (P0C0L4 1454-1744 limits assumed, form in doubt, chain 3 of 3): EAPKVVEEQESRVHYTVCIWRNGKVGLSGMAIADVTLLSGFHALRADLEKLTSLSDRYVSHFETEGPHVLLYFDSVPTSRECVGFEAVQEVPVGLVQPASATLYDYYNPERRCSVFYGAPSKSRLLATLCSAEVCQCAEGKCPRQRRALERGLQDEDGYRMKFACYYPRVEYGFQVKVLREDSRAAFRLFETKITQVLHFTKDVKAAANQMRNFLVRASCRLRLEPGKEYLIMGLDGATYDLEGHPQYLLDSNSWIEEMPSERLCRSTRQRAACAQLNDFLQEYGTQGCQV
Kind of assay: ELISA, 50 nM mAb on plate-bound protein. The method, then: Recombinant PSGL-1-hFc1 chimera protein consisting of PSGL-1's extracellular domain (ECD) served as a positive control. […] Primary antibody was added (25 ul per well) in duplicate at 50 nM in assay buffer (blocking buffer containing 0.05% Tween®20) into test and control (just blocked) wells and the plate incubated for 45 min at 37° C.
As to B10, the “% of binding to PSGL-1(ECD)-hFc1” value was no more than 10%.

Consider B8, for which the “% of binding to PSGL-1(ECD)-hFc1” value was no more than 10%.

Regarding B9, the “% of binding to PSGL-1(ECD)-hFc1” value is no more than 10%.

Consider B6, for which the “% of binding to PSGL-1(ECD)-hFc1” value is no more than 10%.

Another assay concerns the target T4, Recombinant human PSGL-1(ECD)-hFc1 (R&D …). Description: Octet tandem; competitor 20G13. The method, then: as §3, §4
On to B1, for which the “% binding of analyte mAb” value worked out at 32.4%.

Turning to B2, the “% binding of analyte mAb” value stood at 0%.

Regarding B3, the “% binding of analyte mAb” value is 0%.

Take B4: the “% binding of analyte mAb” value was determined as 0%.
